Legend:
[1] = biological target: Hepatitis A virus (HAV); experiment: cell-based or functional assay
[2] = biological target: Rotavirus; experiment: cell-based or functional assay
[3] = biological target: Human infectious Norovirus (genotype GII-4); experiment: Norovirus captured on Con A-bound sepharose 4B resin, Ct values by RT-PCR
[4] = biological target: Human infectious Norovirus (genotype GII-4); experiment: BLI, antibody and Con A each immobilized on ARG2 chips, same concentration of Norovirus

**Q.** With “concanavalin A (Con A, sigma) (from UniProt P02866 30-281)” as the substance, how does the concentration of HAV (copy number by RT-PCR) in FRhk-4 cells, Con A plus HAV group [1] read?
**A.** The concentration of HAV (copy number by RT-PCR) in FRhk-4 cells, Con A plus HAV group was 27000 unit.

**Q.** And the concentration of Rotavirus (copy number by RT-PCR) in MA-104 cells, Con A plus Rotavirus group [2]?
**A.** Its concentration of Rotavirus (copy number by RT-PCR) in MA-104 cells, Con A plus Rotavirus group is 64000 unit.

**Q.** And the collection rate [3]?
**A.** The collection rate was 94.1%.

**Q.** And the fold stronger binding than the antibody [4]?
**A.** The fold stronger binding than the antibody was 3 fold.

Source: patent publication US20170285011A1
